By Kd is commonly meant the concentration at which binding is half-saturated.

Results on 1 molecule are retold here after patent CN114409779A.

This experiment deals with 重组人NogoA蛋白 (recombinant human NogoA protein) (human) (UniProt Q9NQC3). The experiment can be described thus: BLI (Gator label-free analyser), antibody captured on Protein A probe, NogoA at 10, 5, 2.5 and 0 ug/mL.
UniProt Q9NQC3, sequence (Q9NQC3 1055-1120 limits assumed): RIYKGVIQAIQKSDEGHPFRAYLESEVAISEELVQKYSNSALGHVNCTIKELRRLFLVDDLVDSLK

B1: NogoAD1-1 (antibody, part only; not given: Light chain variable domain, V domains shown, part only)
VH: EVLLVESQQTPVKPGGSLKASCAGSQSVFLTAAYSWVRPTPEKLLEWVATISYGSPNTYYPDSVKGRYNEKFKGKATLTVETSSSTAYMQLSSLTSEDTAVYFCARRSYGEDSWFSYWGQGTLVTVSS
Regarding B1, the equilibrium dissociation constant (Kd) stood at 8.2 pM.
